Source: the supplement of paper PMC9112550, “Optimization of the antimicrobial peptide Bac7 by deep mutational scanning” (BMC Biology, 2022)

What follows are sequences tested on Escherichia coli TOP10 (assay: shrunken log2 fold change of peptide-encoding DNA abundance (4.5 h post-induction vs induction); higher = less antimicrobial activity (less host growth inhibition)). Settings: time post-induction: 4.5 h; library: site-saturation at positions 5, 18, 19, 20.
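Also: peptides expressed intracellularly from a pBAD plasmid library in pooled LB shake-flask culture, induced with 0.3% L-arabinose, DNA abundance read by NGS, three biological replicates, DESeq2 with apeglm shrinkage.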

Row | Sequence | shrunken log2 fold change
1 | RRIRYRPPRLPRPRPRPSVWPRP | 0.0896
2 | RRIRYRPPRLPRPRPRPSWWPRP | -0.511
3 | RRIRYRPPRLPRPRPRPSWYPRP | -0.772
4 | RRIRYRPPRLPRPRPRPSYFPRP | -0.684
5 | RRIRYRPPRLPRPRPRPTCQPRP | -0.0443
6 | RRIRYRPPRLPRPRPRPTDDPRP | 0.0131
7 | RRIRYRPPRLPRPRPRPTDVPRP | -0.122
8 | RRIRYRPPRLPRPRPRPTESPRP | 0.0538
9 | RRIRYRPPRLPRPRPRPTFKPRP | -0.445
10 | RRIRYRPPRLPRPRPRPTGIPRP | -0.114
11 | RRIRYRPPRLPRPRPRPTGMPRP | 0.0495
12 | RRIRYRPPRLPRPRPRPTKRPRP | -0.028
13 | RRIRYRPPRLPRPRPRPTLEPRP | -0.136
14 | RRIRYRPPRLPRPRPRPTLSPRP | -0.0535
15 | RRIRYRPPRLPRPRPRPTMAPRP | 0.12
16 | RRIRYRPPRLPRPRPRPTMIPRP | -0.455
17 | RRIRYRPPRLPRPRPRPTPCPRP | -0.122
18 | RRIRYRPPRLPRPRPRPTPFPRP | -0.27
19 | RRIRYRPPRLPRPRPRPTQNPRP | 0.298
20 | RRIRYRPPRLPRPRPRPTQWPRP | 0.413
21 | RRIRYRPPRLPRPRPRPTRNPRP | -0.404
22 | RRIRYRPPRLPRPRPRPTSKPRP | 0.902
23 | RRIRYRPPRLPRPRPRPTSLPRP | -0.0466
24 | RRIRYRPPRLPRPRPRPTTAPRP | -0.415
25 | RRIRYRPPRLPRPRPRPTTFPRP | -0.645

Row | Sequence | shrunken log2 fold change
26 | RRIRYRPPRLPRPRPRPTTTPRP | -0.00235
27 | RRIRYRPPRLPRPRPRPTVFPRP | -0.317
28 | RRIRYRPPRLPRPRPRPTWLPRP | 0.00076
29 | RRIRYRPPRLPRPRPRPVAEPRP | -0.0801
30 | RRIRYRPPRLPRPRPRPVARPRP | -0.206
31 | RRIRYRPPRLPRPRPRPVAWPRP | 0.00214
32 | RRIRYRPPRLPRPRPRPVCDPRP | -0.623
33 | RRIRYRPPRLPRPRPRPVEEPRP | -0.32
34 | RRIRYRPPRLPRPRPRPVEQPRP | -0.191
35 | RRIRYRPPRLPRPRPRPVFNPRP | -1.32
36 | RRIRYRPPRLPRPRPRPVGMPRP | -0.083
37 | RRIRYRPPRLPRPRPRPVGSPRP | -0.277
38 | RRIRYRPPRLPRPRPRPVHSPRP | -0.155
39 | RRIRYRPPRLPRPRPRPVKKPRP | -0.0286
40 | RRIRYRPPRLPRPRPRPVKMPRP | -0.392
41 | RRIRYRPPRLPRPRPRPVKPPRP | 0.00519
42 | RRIRYRPPRLPRPRPRPVKQPRP | -0.00131
43 | RRIRYRPPRLPRPRPRPVLEPRP | -0.0835
44 | RRIRYRPPRLPRPRPRPVLRPRP | 0.124
45 | RRIRYRPPRLPRPRPRPVMDPRP | -0.122
46 | RRIRYRPPRLPRPRPRPVMGPRP | -0.0133
47 | RRIRYRPPRLPRPRPRPVRKPRP | 0.195
48 | RRIRYRPPRLPRPRPRPVRRPRP | 0.0834
49 | RRIRYRPPRLPRPRPRPVTCPRP | -0.0508
50 | RRIRYRPPRLPRPRPRPVTGPRP | -0.213

Row | Sequence | shrunken log2 fold change
51 | RRIRYRPPRLPRPRPRPVTRPRP | -0.129
52 | RRIRYRPPRLPRPRPRPVVDPRP | -0.0233
53 | RRIRYRPPRLPRPRPRPVYSPRP | 4.05
54 | RRIRYRPPRLPRPRPRPWALPRP | -0.355
55 | RRIRYRPPRLPRPRPRPWFEPRP | -0.2
56 | RRIRYRPPRLPRPRPRPWFHPRP | -0.17
57 | RRIRYRPPRLPRPRPRPWFWPRP | -0.0261
58 | RRIRYRPPRLPRPRPRPWGKPRP | -0.461
59 | RRIRYRPPRLPRPRPRPWHNPRP | -0.626
60 | RRIRYRPPRLPRPRPRPWIIPRP | -0.384
61 | RRIRYRPPRLPRPRPRPWIPPRP | -0.0119
62 | RRIRYRPPRLPRPRPRPWITPRP | -0.0192
63 | RRIRYRPPRLPRPRPRPWKHPRP | -0.0695
64 | RRIRYRPPRLPRPRPRPWLLPRP | -1.51
65 | RRIRYRPPRLPRPRPRPWLVPRP | -0.096
66 | RRIRYRPPRLPRPRPRPWNEPRP | -0.0429
67 | RRIRYRPPRLPRPRPRPWNMPRP | -0.186
68 | RRIRYRPPRLPRPRPRPWQSPRP | -0.121
69 | RRIRYRPPRLPRPRPRPWRAPRP | -0.142
70 | RRIRYRPPRLPRPRPRPWRSPRP | 0.175
71 | RRIRYRPPRLPRPRPRPWTSPRP | -0.039
72 | RRIRYRPPRLPRPRPRPWVAPRP | -0.481
73 | RRIRYRPPRLPRPRPRPWYNPRP | -0.764
74 | RRIRYRPPRLPRPRPRPWYWPRP | -0.0383
75 | RRIRYRPPRLPRPRPRPYACPRP | 0.00253

Row | Sequence | shrunken log2 fold change
76 | RRIRYRPPRLPRPRPRPYAEPRP | -0.193
77 | RRIRYRPPRLPRPRPRPYCLPRP | -1.15
78 | RRIRYRPPRLPRPRPRPYCTPRP | -1.54
79 | RRIRYRPPRLPRPRPRPYEEPRP | -0.0354
80 | RRIRYRPPRLPRPRPRPYEKPRP | -0.117
81 | RRIRYRPPRLPRPRPRPYFEPRP | -0.58
82 | RRIRYRPPRLPRPRPRPYGCPRP | -0.143
83 | RRIRYRPPRLPRPRPRPYILPRP | -0.264
84 | RRIRYRPPRLPRPRPRPYLLPRP | -1.28
85 | RRIRYRPPRLPRPRPRPYMKPRP | -0.122
86 | RRIRYRPPRLPRPRPRPYMYPRP | -0.23
87 | RRIRYRPPRLPRPRPRPYNDPRP | -0.0979
88 | RRIRYRPPRLPRPRPRPYPDPRP | -0.0152
89 | RRIRYRPPRLPRPRPRPYRLPRP | -0.173
90 | RRIRYRPPRLPRPRPRPYTCPRP | -0.00145
91 | RRIRYRPPRLPRPRPRPYTMPRP | -0.301
92 | RRIRYRPPRLPRPRPRPYVVPRP | -0.24
93 | RRIRYRPPRLPRPRPRPYVWPRP | -0.389
94 | RRIRYRPPRLPRPRPRPYWEPRP | -0.0328
95 | RRIRYRPPRLPRPRPRPYWQPRP | -0.000687
96 | RRIRYRPPRLPRPRPRPYWSPRP | -0.0274
97 | RRIRYRPPRLPRPRPRPYYFPRP | -2.19
